Results from the supplement of paper PMC12042874.
± gives the uncertainty stated by the source.

Test: amyloid nucleation score (Sup35N fusion, yeast selection) (log enrichment); library NNK2; higher = more nucleation; inactive = no reads after selection
Procedure, shortened: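 In psi-negative yeast, Sup35N fusions carrying peptides of 20 random codons were induced with 100 μM copper sulfate for 24 hours. The cells then grew 7 days at 30°C on medium lacking adenine and uracil, and plasmid inserts from input and output were Illumina-sequenced, excluding sequences with under 100 input reads. Nucleation score is the DiMSum log enrichment of output over input reads, centred on the mode score of non-aggregating sequences.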

| Substance | amyloid nucleation score |
| --- | --- |
| ISVGRSYSV | 0.694 ± 0.24 |
| VRSISASLSAMIYR | -0.925 ± 0.45 |
| FKSQIDSECMFYLLG | -0.018 ± 0.17 |
| IWYCRK | -1.11 ± 0.44 |
| ASLAEKGL | -0.497 ± 0.38 |
| NIQPEK | -0.587 ± 0.39 |
| DNFFIMALHSSREVDMKNRS | -1.53 ± 1 |
| YRLFSRWAVVRFMGVGSLSF | -0.691 ± 0.56 |
| RVYEVFGQKATGQMARRSVG | 1.78 ± 0.34 |
| ELFTLGLEGALEVNELKLKY | 0.782 ± 0.18 |
| RVKYILMVQSLIFWNHILNV | inactive |
| YVSNLEK | -0.073 ± 1 |
| HVRMK | 4.79 ± 0.1 |
| KFSASKSDISLSSYVVIMFM | 6.186 ± 0.036 |
| MCCPRSNFGYPFHVNLDMWG | -0.186 ± 0.55 |
| PVKPDSVGVRSIMGIVFGYR | 2.94 ± 0.051 |
| LNLSWVCSLGRYFVGGYISF | -1.29 ± 0.63 |
| SLMETGYTPSRERMMHHM | -0.095 ± 0.33 |
| NEEWSFCKS | -0.165 ± 1 |
| FCLALWWHYKFVLWFRNN | -0.836 ± 0.37 |
| WLFRGSIVKWTPHRPDRYAC | -0.088 ± 0.46 |
| YTGIESE | 0.768 ± 0.21 |
| LVGHYSDRDYVEYARRDCAG | 0.252 ± 0.8 |
| GSVGGSGIAACGTSDGGTVR | 2.02 ± 0.27 |
| FLSRWSFPHGEFLLIRTLAG | -0.574 ± 0.3 |
| MTRTFYCFQGRHLDSWDQGE | 0.371 ± 0.8 |

| Substance | amyloid nucleation score |
| --- | --- |
| RSHGSQGMKSR | 1.12 ± 0.34 |
| LVSMLVFL | 2.15 ± 0.15 |
| IMGKLHTADYIIVLRLIDRS | -0.349 ± 0.41 |
| CSWVRSLYNGIVLKKH | -0.652 ± 0.45 |
| GFRSLNVSRANLCSYIRHLL | 0.02 ± 0.44 |
| LGRKR | -0.725 ± 0.76 |
| NQMYQNE | -0.352 ± 0.45 |
| VLVRS | 0.157 ± 1 |
| KFLIWRNFLYSVIMAVAW | inactive |
| YWLYMVAHAPKSFIE | 0.509 ± 0.8 |
| YLLRNWLPGKVGCHQFLILW | 0.757 ± 0.39 |
| TFELNLLVPAPNCRFHDLRR | 1.46 ± 0.22 |
| FLNYVGDGIIEI | -0.835 ± 0.48 |
| HRLVLDIGDQIWSKA | 0.35 ± 0.56 |
| HIVIGSFD | inactive |
| SACDGPGTQSRIVGWGHSCV | 1.33 ± 0.27 |
| SYNLETFIFLWKESG | inactive |
| IIENDICHWSDICMEDLMDW | 0.186 ± 0.54 |
| LGHFSFD | inactive |
| NRSREELYARNKQYFSFI | -0.986 ± 0.76 |
| TQCRFRTSRVDICKIVKPGS | 0.177 ± 0.65 |
| QWIWSHSNHNSWIPGSGVVD | -1.13 ± 0.76 |
| VSSVRIILLAWWSMRTLYFD | -2.43 ± 0.78 |
| LVVLWK | 6.01 ± 0.061 |
| MKRVGKFVGLGGRHVVHSRV | 0.434 ± 0.33 |
| ASYLLKVVVYIHLSGSHGVD | 4.55 ± 0.068 |

| Substance | amyloid nucleation score |
| --- | --- |
| DVSESRSTVDGSDNEGWLTD | 0.299 ± 0.42 |
| LNMVFW | inactive |
| GMVVFVI | 0.21 ± 0.51 |
| LGWASYVYGCGRRGGSCRGW | 1.87 ± 0.12 |
| RVMGCVMGIRGWRIRIGNSG | 1.42 ± 0.47 |
| RPDNSDV | -1.61 ± 0.54 |
| GRMQTKTILKNIECNNDSLM | 2.39 ± 0.057 |
| SKLVSYIDWVGSRILRYTCV | -0.801 ± 1.1 |
| YVTCCSGVGVMLFRCANLNC | 5.37 ± 0.082 |
| RFPLGCKMSVTGPFHMTHHA | 1.29 ± 0.38 |
| SVNWEDKDLGVGSNLEIASL | -0.889 ± 1 |
| CRSNQNESLNGC | 0.436 ± 0.21 |
| LCPVLYT | inactive |
| YFYRRVCGINAGPQPCLEYV | -1.27 ± 0.54 |
| VLLFLSMEVLNRNGMKVPVM | 2.17 ± 0.16 |
| SGTGKVCVVLVHKTSVQRKC | 1.14 ± 0.3 |
| FTCTGRRVYAQLKNVFIFVL | 1.92 ± 0.19 |
| VSGFFSDHA | -1.06 ± 1.1 |
| YREHQKVRFSSLISSIGVLM | -0.004 ± 0.49 |
| ASDRGI | 0.532 ± 0.18 |
| LARACKIEAYFLLVHVSIMC | -0.174 ± 0.76 |
| VTGTYFLVLITCA | 4.27 ± 0.065 |
| LCWMRFLDSCEEVHKSIHVF | 0.38 ± 0.39 |
| QFAYTRSSPVKIYLYNNYGA | 8.109 ± 0.037 |
| IRMDGYEIRFSHSLYYLSH | 2.45 ± 0.081 |
| GHKDSEDGLNTKFFRRSN | inactive |

| Substance | amyloid nucleation score |
| --- | --- |
| GMKCAAFSESVNHRLQFNGT | -0.345 ± 0.33 |
| GGLTIAKFCESMVLLRFSRT | 0.399 ± 0.32 |
| GTNKAYFNASFMD | -0.875 ± 0.44 |
| AMPSRDLITR | 2.52 ± 0.075 |
| VLDYSTHIEFGQRRVVGFAR | -0.321 ± 1 |
| KFSVSLICYVTASRYSNYRE | 0.362 ± 0.31 |
| EDSPKFKGGPGIYHSVVLVG | 0.394 ± 0.27 |
| VSGRDHTNNTGLYAWLHFCY | -0.493 ± 0.63 |
| MRLLVHSWDIESSFNVRMGQ | 3.42 ± 0.058 |
| TCVVSTYLINIQKNVASFER | 6.816 ± 0.041 |
| EITFLCSGKSDSDMYVGFAS | 2.08 ± 0.072 |
| HAKPDNLLFLTNGEPRTIIR | -2.15 ± 1.1 |
| FTNFNDYLFWNYMNWTGYML | inactive |
| YIAYGDFSSFFTLNIS | 7.476 ± 0.047 |
| VEMSEDEPCLWYGSLIPGTR | 2.83 ± 0.18 |
| DGVSCSRVNAVVYARLSQMG | 1.3 ± 0.23 |
| GRAPLSNNLMDSVTVESVHM | -0.744 ± 0.28 |
| WFKVH | 0.26 ± 0.8 |
| MSSMCNLFRYMFKLYVRSWV | -0.681 ± 0.3 |
| FEWWTSMGGGECVQRNNSVA | 0.697 ± 0.41 |
| SDFVEKLLWFSY | 0.039 ± 0.77 |
| RRFTINFKDK | -1.2 ± 0.78 |
| FFISALANR | inactive |
| TVVVYIRYRTPMRMVTPPSQ | 0.986 ± 0.21 |
| DRAVRQFIFLVYGSSLDWDI | 0.044 ± 0.79 |
| NYLQCWVFGRESMSLYKIWL | -0.081 ± 1.1 |

| Substance | amyloid nucleation score |
| --- | --- |
| LVYTPCLILGDELAVTGVKR | -0.337 ± 0.23 |
| DGVRGLYKRLRMCTTCLCTL | 6.48 ± 0.079 |
| MFSRIWPSSDL | -0.324 ± 1.1 |
| LLLTLCSDHMLNGNVVGHDW | 4.05 ± 0.049 |
| DYWLMEWMRYVHRLVGNCWY | -0.959 ± 1.1 |
| SCIYRE | -0.097 ± 0.21 |
| MSRKWGGSKRCNGCPPKLVQ | 1.08 ± 0.22 |
| INVFSYSL | 2.58 ± 0.089 |
| ACFNLEKIVINYFWFS | 6.999 ± 0.039 |
| SFFNSWTHFGNCWFL | 3.85 ± 0.065 |
| HYYWSALSSAFVNSMIVR | -1.09 ± 0.76 |
| HLPFMHPRPANLSHNKTSVS | -0.766 ± 0.4 |
| AMFSEVYASHQVVPYPLSLS | 0.746 ± 0.62 |
| TSDPCFFCNST | -0.381 ± 0.79 |
| FLCRLLGSGRSHHIRVC | 0.15 ± 0.22 |
| VLNGRTEWTKQVDFIYFITD | -0.464 ± 1.1 |
| LMGKGMSTLGDDGVFSRG | -0.378 ± 0.49 |
| DTRVSFRFMVTYLIMVYRFL | 0.774 ± 0.22 |
| IDSMGFSMKSFDFRYNTSRW | 5.02 ± 0.092 |
| WQKLLIDYSSSTYDEALGT | 0.833 ± 0.8 |
| VYHLLFSGC | 0.219 ± 0.33 |
| PSLMHSHLESNNTSA | -0.21 ± 0.44 |
| ITFAYVSLTLHRINEMGYQL | 4.65 ± 0.049 |
| IIYLIGLTRARHWCRLRYEL | -0.063 ± 0.3 |
